Reference: paper PMC4818849, “In vitroassembly of the bacterial actin protein MamK from ‘CandidatusMagnetobacterium casensis’ in the phylumNitrospirae” (Protein & Cell, 2016)

Substrate: Nc1ncnc2c1ncn2[C@@H]1O[C@H](COP(=O)(O)OP(=O)(O)OP(=O)(O)O)[C@@H](O)[C@H]1O
Assay: ATPase, malachite green phosphate release, Lineweaver-Burk plot
Format: biochemical, Magnetobacterium casense (SeqCode)
Conditions: assay buffer of b46: 20 mmol/L Tris-HCl pH 8.0, 0.2 mmol/L MgCl2, 50 mmol/L NaCl, 37°C, kinetic details in supplement
Description: ATPase, malachite green phosphate release, Lineweaver-Burk plot on MamK from 'Candidatus Magnetobacterium casensis' (Mcas MamK) | we calculated the Vmax and Km of the ATPase activity as […]

B1: MamK from 'Candidatus Magnetobacterium casensis' (Mcas MamK) (Magnetobacterium casense (SeqCode)) (protein)
chain: MTKTKILNIGIDLGTSRSVIACDNGVRTFVPSYVGFPKDAVSRKMFGRDVIFGDEAIKHRMALNLFRPFDKGMIKYADTNPESKEYKNALYVAKALLQHLVDLAKEGDQERGVDYIVRGVIGAPALASRKNRKALLDVARGILDGVMISSEPFTVAYGLNLLSNALIIDIGAGTVDLCRMHGTIPTDEDQITTFKAGDYVDQAFYDLITKKYKDVNLTINMVKKFKEENAFISSQGERVFIEVPVKGKPEKRDITDELRQACRMIVPDIVEGIRKLIAEYDPEFQNNLKQNVVLAGGGSQIIGLRKEIEDYMIETLGYGKVIKIEEPLFAGANGAMMLCKDMPDEYWDEVSKR
notes: full-length mamK from Mcas genomic DNA in pET28a and pET22b, E. coli C43 (DE3); His tag removed leaving three N-terminal residues (tagged forms also examined); filament-forming
Km: 71.02 µmol/L
kcat: 3.8 min⁻¹
